Data from US20100048468A1 (Amgen, published 2010).
Where two headings read alike, the source gives them in different places. Non-standard residues stand in square brackets, D forms with d. Groups on a side chain read outwards from the residue. Primed or numbered codes have the meaning given here. No end group written: not given here. maleimide = maleimide group of a PEG-maleimide, coupled to the cysteine thiol (thioether); mPEG40k‑branched = branched 40 kDa PEG (2 × 20 kDa) maleimide, attached to the Cys thiol; mPEG 20 kDa = 20 kD mPEG-maleimide, thioether-linked to the Cys; branched PEG 40 kDa = branched polyethylene glycol of 40 kDa; branched PEG 40 kDa″ = 40 kDa branched poly(ethylene glycol); Aib′ = alpha aminobutyric acid (source's wording)

Tests used:
human GLP-1 receptor [1] = target: T1, human GLP-1 receptor (human, UniProt P43220 24-463); assay: cell-based or functional assay
mouse GLP-1 receptor [2] = target: T2, mouse GLP-1 receptor (mouse, UniProt O35659 22-463); assay: cell-based or functional assay
T2 sequence (looked up): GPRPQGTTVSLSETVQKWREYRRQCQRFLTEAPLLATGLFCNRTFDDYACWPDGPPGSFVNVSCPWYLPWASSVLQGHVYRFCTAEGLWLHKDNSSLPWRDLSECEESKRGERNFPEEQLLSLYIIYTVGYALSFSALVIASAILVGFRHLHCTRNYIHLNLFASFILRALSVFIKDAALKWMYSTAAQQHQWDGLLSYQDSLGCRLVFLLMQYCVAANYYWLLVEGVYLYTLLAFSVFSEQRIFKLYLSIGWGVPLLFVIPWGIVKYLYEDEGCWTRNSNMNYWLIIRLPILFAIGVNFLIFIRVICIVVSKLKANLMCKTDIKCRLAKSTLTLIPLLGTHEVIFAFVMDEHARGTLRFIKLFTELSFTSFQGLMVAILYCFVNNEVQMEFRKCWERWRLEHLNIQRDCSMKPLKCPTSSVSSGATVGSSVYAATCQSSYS

human GLP-1 receptor [3] = target: T1, human GLP-1 receptor; assay: 125I-GLP-1 displacement, membranes of CHOK1 cells expressing human GLP-1 receptor
Protocol: (§1) Membrane Preparation. […] Cells were sedimented at 1500 rpm for 10 minutes. The resulting pellets were homogenized in 15 mls of ice cold sucrose buffer (25 mM Tris-HCl, 0.32 M Sucrose, 0.25 g/L, sodium azide, pH 7.4) with a motorized, glass fitted, Teflon homogenizer. The homogenate was centrifuged at 48,000×g at 4° C. for 10 minutes, resuspended in 25 ml assay buffer (50 mM Tris-HCl, 5 mM MgCl₂, 10 mg/ml protease-free BSA, 0.1 mg/ml STI, and 0.1 mg/ml Pefabloc, pH 7.4) with a Tissue-Tearor (Biospec Products), then centrifuged again at 48,000×g for 10 minutes. The pellets were homogenized for a third time in 15 ml assay buffer using the Tissue-Tearor and again centrifuged at 48,000×g for 10 minutes. The resulting pellet was resuspended in assay buffer at a wet weight concentration of 4 mg/ml.
(§2) Ligand Binding Assay. Binding assays were performed in 96-well U-bottom plates. […] The reaction was terminated by rapid filtration through Unfilter-96 GF/C glass fiber filter plates (FilterMate 196 Packard Harvester, PerkinElmer, Shelton, Conn.) pre-soaked in 0.5% polyethylenimine, followed by three washes with 300 μl of cold 50 mM Tris-HCl, pH 7.4. Bound radioactivity was determined using a TopCount microplate scintillation and luminescence counter (Packard Instrument Company, PerkinElmer, Shelton, Conn.). Nonlinear regression analyses of resulting concentration curves were performed using GraphPad Prism (GraphPad Software, Inc., San Diego, Calif.).
In vitro experiments were conducted to determine receptor binding and potency for a class of molecules having a glycine substitution at position 8, a cysteine substitution at position 22 and a variable C-terminus.

human GLP-1 receptor [4] = target: T1, human GLP-1 receptor; assay: cell-based or functional assay; remark: listed apart in the source
mouse GLP-1 receptor [5] = target: T2, mouse GLP-1 receptor; assay: cell-based or functional assay; remark: listed apart in the source
human GLP-1 receptor [6] = target: T1, human GLP-1 receptor; assay: 125I-GLP-1 displacement, membranes of CHOK1 cells expressing human GLP-1 receptor; remark: listed apart in the source
Protocol: as §1, §2
The pegylated molecules were conjugated at the cysteine at position 38.

human GLP-1 receptor [7] = target: T1, human GLP-1 receptor; assay: cell-based or functional assay; remark: listed apart in the source
Target sequence in this assay (P43220 24-463): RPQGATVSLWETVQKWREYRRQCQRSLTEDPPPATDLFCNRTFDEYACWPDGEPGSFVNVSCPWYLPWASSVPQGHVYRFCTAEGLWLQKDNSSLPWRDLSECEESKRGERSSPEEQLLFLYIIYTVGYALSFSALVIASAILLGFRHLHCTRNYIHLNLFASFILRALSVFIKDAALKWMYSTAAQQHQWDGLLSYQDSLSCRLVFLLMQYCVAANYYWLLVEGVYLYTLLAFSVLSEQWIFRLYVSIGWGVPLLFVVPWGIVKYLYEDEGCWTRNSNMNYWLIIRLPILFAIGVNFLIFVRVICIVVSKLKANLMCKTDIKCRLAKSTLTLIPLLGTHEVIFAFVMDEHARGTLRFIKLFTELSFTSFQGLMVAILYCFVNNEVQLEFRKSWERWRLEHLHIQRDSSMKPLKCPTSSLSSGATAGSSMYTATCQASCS

human GLP-1 receptor [8] = target: T1, human GLP-1 receptor; assay: 125I-GLP-1 displacement, membranes of CHOK1 cells expressing human GLP-1 receptor; remark: listed apart in the source
Protocol: as §1
as §2, with “Calif.). […]” for “Calif.).”

human GLP-1 receptor [9] = target: T1, human GLP-1 receptor; assay: cell-based or functional assay; remark: listed apart in the source
mouse GLP-1 receptor [10] = target: T2, mouse GLP-1 receptor; assay: cell-based or functional assay; remark: listed apart in the source

B1: cgGLP-12 (SEQ ID NO: 7 + 20k PEG monomer) (peptide)
peptide: HGEGTFTSDVSSYLEGC(PEG 20 kDa)AAKEFIAWLVKGRGSSGAPPPS
EC50 human (human GLP-1 receptor [1]): 1 nM | EC50 mouse (mouse GLP-1 receptor [2]): 8 nM | IC50 (human GLP-1 receptor [3]): 1000 nM

B2: HGEGTFTSDVSSYLEGQAAKEFIAWLVKGRGCSG (SEQ ID NO: 10) (peptide)
peptide: HGEGTFTSDVSSYLEGQAAKEFIAWLVKGRGCSG
EC50 human (human GLP-1 receptor [4]): 0.05 nM | EC50 mouse (mouse GLP-1 receptor [5]): 0.32 nM

B3: cgGLP-4 & mgGLP-09A (SEQ ID NO: 10 + 20k PEG) (peptide)
peptide: HGEGTFTSDVSSYLEGQAAKEFIAWLVKGRGCSG
modifications: not fully specified (residue 32)
notes: also called cgGLP-09A
EC50 human (human GLP-1 receptor [4]): 0.23 nM | EC50 mouse (mouse GLP-1 receptor [5]): 1.8 nM | IC50 (human GLP-1 receptor [6]): 130 nM

B4: cgGLP-6 (SEQ ID NO: 10 + 8k PEG dumbbell) (peptide)
peptide: HGEGTFTSDVSSYLEGQAAKEFIAWLVKGRGCSG
modifications: not fully specified (residue 32); also: dimer: two peptides on one mal-PEG-mal, one at each end
EC50 human (human GLP-1 receptor [4]): ~0.1 nM | EC50 mouse (mouse GLP-1 receptor [5]): 0.8 nM | IC50 (human GLP-1 receptor [6]): 11 nM

B5: cgGLP-16 (SEQ ID NO: 10 + 30k PEG) (peptide)
peptide: HGEGTFTSDVSSYLEGQAAKEFIAWLVKGRGC(PEG 30 kDa)SG
EC50 human (human GLP-1 receptor [4]): 0.39 nM | EC50 mouse (mouse GLP-1 receptor [5]): 4 nM

B6: cgGLP-7 (SEQ ID NO: 6 + 30k PEG) (peptide)
peptide: HGEGTFTSDVSSYLEGC(PEG 30 kDa)AAKEFIAWLVKGRG
EC50 human (human GLP-1 receptor [7]): 0.2 nM | EC50 mouse (mouse GLP-1 receptor [2]): 2.9 nM

B7: cgGLP-8 (SEQ ID NO: 10 + 30k PEG) (peptide)
peptide: HGEGTFTSDVSSYLEGQAAKEFIAWLVKGRGC(PEG 30 kDa)SG
EC50 human (human GLP-1 receptor [4]): 0.4 nM | EC50 mouse (mouse GLP-1 receptor [5]): 3 nM

B8: cgGLP-29 (SEQ ID NO: 22 + 40k branched PEG) (peptide)
peptide: HGEGTFTSDVSSYLE[Aib′]QAAKEFIAWLVKGRGC(mPEG40k‑branched)SG-NH2
IC50 (human GLP-1 receptor [8]): 800 nM | EC50 human (human GLP-1 receptor [9]): 0.15 nM | EC50 mouse (mouse GLP-1 receptor [10]): 1 nM

B9: cgGLP-20 (SEQ ID NO: 25 + 20k mPEG) (peptide)
peptide: H[Aib′]EGTFTSDVSSYLE[Aib′]QAAKEFIAWLVKGRGC(mPEG 20 kDa)SG
IC50 (human GLP-1 receptor [8]): 30 nM | EC50 human (human GLP-1 receptor [9]): 0.099 nM | EC50 mouse (mouse GLP-1 receptor [10]): 1.5 nM

B10: cgGLP-1 (SEQ ID NO: 6 + 20K PEG) (peptide)
peptide: HGEGTFTSDVSSYLEGC([maleimide-mPEG 20 kDa])AAKEFIAWLVKGRG
EC50 human (human GLP-1 receptor [7]): 12 nM | EC50 mouse (mouse GLP-1 receptor [2]): 245 nM

B11: cgGLP-2 (SEQ ID NO: 6 + 40k branched PEG) (peptide)
peptide: HGEGTFTSDVSSYLEGC(branched PEG 40 kDa)AAKEFIAWLVKGRG
EC50 human (human GLP-1 receptor [7]): 0.7 nM | EC50 mouse (mouse GLP-1 receptor [2]): 3.6 nM

B12: cgGLP-5 (SEQ ID NO: 10 + 40k branched PEG) (peptide)
peptide: HGEGTFTSDVSSYLEGQAAKEFIAWLVKGRGC(branched PEG 40 kDa″)SG
EC50 mouse (mouse GLP-1 receptor [5]): 1.5 nM

B13: mgGLP-15 (SEQ ID NO: 24 + 20k PEG) (peptide)
peptide: HGEGTFTSDVSSYLE[Aib′]QAAKEFIAWLVKGRGC(mPEG‑maleimide 20 kDa)SGG-NH2
IC50 (human GLP-1 receptor [8]): 100 nM | EC50 human (human GLP-1 receptor [9]): 0.2 nM | EC50 mouse (mouse GLP-1 receptor [10]): 1.8 nM
